This note sets out measurements from patent publication US20250019439A1 (Adimab, published 2025).

For one assay, the target named is T1, ADI-26927 IgG.
T1 construct: anti-CD3 IgG
As to the kind of experiment: BLI; tip anti-CD3 IgG, solution ADI-34134 IgG. Here is the method: (§1) ForteBio affinity measurements were performed generally as previously described (Estep et al., MAbs. 2013 5(2):270-8). Briefly, ForteBio affinity measurements were performed by loading antibody IgG or Fabs on-line onto AHC sensors. Sensors were equilibrated off-line in assay buffer for 30 minutes and then monitored on-line for 60 seconds for baseline establishment. For avid binding measurement, sensors with loaded antibodies were exposed to IgG or Fab solutions for 3 minutes, afterwards they were transferred to assay buffer for 3 minutes for off-rate measurement. Kinetics data were fit using a 1:1 binding model in the data analysis software provided by ForteBio to obtain equilibrium dissociation constant (KD=koff/kₒₙ) values. In each column, tip-immobilized antibodies are listed first and solution antibodies second.
(§2) CTL-19613 is an IgG1 antibody prepared with anti-CD3 variable domains corresponding with those of clone 12C described in United States Publication Number US 2010/0183615 (e.g., see paragraphs 469-479 and FIG. 25 thereof), which also make up the CD3 binding domain of the bispecific antibody pasotuxizumab. […] In each column, tip-immobilized antibodies are listed first and solution antibodies second.
(BLI is a label-free optical method that tracks binding on a fibre tip over time.)

A further assay has as its target T2, ADI-26941 IgG.
T2 construct: anti-CD3 IgG
The assay is described as follows: BLI; tip anti-CD3 IgG, solution ADI-34134 IgG. The protocol:
as §1, §2

For assay [1], the target named is T3, ADI-26913 IgG.
T3 construct: anti-CD3 IgG
The assay is described as follows: BLI; tip anti-CD3 IgG, solution ADI-34134 IgG. The protocol:
as §1, §2

The next assay concerns the target T4, ADI-26921 IgG.
T4 construct: anti-CD3 IgG
The assay is described as follows: BLI; tip anti-CD3 IgG, solution ADI-34134 IgG. The protocol:
as §1, §2

Assay [2] deals with T5, ADI-26916 IgG.
T5 construct: anti-CD3 IgG
As to the kind of experiment: BLI; tip anti-CD3 IgG, solution ADI-34134 IgG. Here is the method:
as §1, §2

The next assay concerns the target T6, ADI-22523 anti-CD3 bsIgG (In the assayed molecule VL and VH are joined as one scFv (printed 'Vx-VH' orientation) by an undisclosed linker and fused to an Fc, paired with an anti-HER2 half-IgG. They are given here as two …).
T6 construct: anti-HER2 IgG with one Fab arm replaced by the anti-CD3 scFv (printed 'Vx-VH', read as VL-VH); S354C and Y349C mutations; not shown: scFv linker between VL and VH; anti-HER2 heavy and light chains; hinge and Fc with S354C/Y349C
As to the kind of experiment: BLI; tip anti-CD3 bsIgG, solution ADI-34134 IgG. The protocol:
as §1
(§3) Additional analysis was conducted using bispecific antibody formats incorporating anti-CD3 antibody variable domains. Bispecific antibodies were prepared using standard IgG formats (bsIgG) with replacement of Fab arms with anti-CD3 scFvs in Vx-VH orientation and with S354C and Y349C mutations for disulfide stabilization. Antibodies used for Fab arm replacement were anti-HER2 IgG antibodies, with one Fab arm from each replaced by a scFv corresponding to a different anti-CD3 antibody. […] In each column, tip-immobilized antibodies are listed first and solution antibodies second. Anti-CD3 antibodies associated with incorporated scFvs are listed by antibody number.

For another assay, the target named is T7, ADI-26906 anti-CD3 bsIgG.
T7 construct: anti-HER2 IgG with one Fab arm replaced by the anti-CD3 scFv (printed 'Vx-VH', read as VL-VH); S354C and Y349C mutations; also called anti-CD3 bsIgG (ADI-26906 scFv); not shown: scFv linker; anti-HER2 Fab arm (heavy and light chain); hinge and Fc with S354C/Y349C
As to the kind of experiment: BLI; tip anti-CD3 bsIgG, solution ADI-34134 IgG. The protocol:
as §1, §3

The target of the next assay is T8, ADI-26913 anti-CD3 bsIgG.
T8 construct: anti-HER2 IgG with one Fab arm replaced by the anti-CD3 scFv (printed 'Vx-VH', read as VL-VH); S354C and Y349C mutations; also called anti-CD3 bsIgG (ADI-26913 scFv); not shown: scFv linker; anti-HER2 Fab arm (heavy and light chain); hinge and Fc with S354C/Y349C
As to the kind of experiment: BLI; tip anti-CD3 bsIgG, solution ADI-34134 IgG. The protocol:
as §1, §3

For another assay, the target named is T9, ADI-26921 anti-CD3 bsIgG.
T9 construct: anti-HER2 IgG with one Fab arm replaced by the anti-CD3 scFv (printed 'Vx-VH', read as VL-VH); S354C and Y349C mutations; also called anti-CD3 bsIgG (ADI-26921 scFv); not shown: scFv linker; anti-HER2 Fab arm (heavy and light chain); hinge and Fc with S354C/Y349C
The assay is described as follows: BLI; tip anti-CD3 bsIgG, solution ADI-34134 IgG. Here is the method: as §1, §3

The target of a further assay is T10, ADI-26928 anti-CD3 bsIgG.
T10 construct: anti-HER2 IgG with one Fab arm replaced by the anti-CD3 scFv (printed 'Vx-VH', read as VL-VH); S354C and Y349C mutations; also called anti-CD3 bsIgG (ADI-26928 scFv); not shown: scFv linker; anti-HER2 Fab arm (heavy and light chain); hinge and Fc with S354C/Y349C
As to the kind of experiment: BLI; tip anti-CD3 bsIgG, solution ADI-34134 IgG. Here is the method:
as §1, §3

In another assay the target is T11, ADI-22523 IgG.
T11 construct: anti-CD3 IgG
As to the kind of experiment: BLI; tip anti-CD3 IgG, solution ADI-34145 IgG. The protocol:
as §1, §2

In another assay the target is T12, ADI-26954 IgG.
T12 construct: anti-CD3 IgG
As to the kind of experiment: BLI; tip anti-CD3 IgG, solution ADI-34145 IgG. Here is the method:
as §1, §2

The target of a further assay is CTL-19613 IgG. As to the kind of experiment: BLI; tip anti-CD3 IgG, solution ADI-34145 IgG. Here is the method:
as §1, §2

In another assay the target is T13, CTL-19672 IgG.
T13 construct: IgG1 with the anti-CD3 variable domains of clone 38E4v1
As to the kind of experiment: BLI; tip anti-CD3 IgG, solution ADI-34145 IgG. The protocol: as §1, §2

In a further assay the target is T14, ADI-26906 IgG.
T14 construct: anti-CD3 IgG
As to the kind of experiment: BLI; tip anti-CD3 IgG, solution ADI-34145 IgG. Here is the method: as §1, §2

The target of assay [3] is T3, ADI-26913 IgG. The assay is described as follows: BLI; tip anti-CD3 IgG, solution ADI-34145 IgG. Here is the method: as §1, §2
For another assay, the target named is T15, ADI-26920 IgG.
T15 construct: anti-CD3 IgG
As to the kind of experiment: BLI; tip anti-CD3 IgG, solution ADI-34145 IgG. The protocol:
as §1, §2

In assay [4] the target is T5, ADI-26916 IgG. As to the kind of experiment: BLI; tip anti-CD3 IgG, solution ADI-34145 IgG. Here is the method: as §1, §2

T5 sequence (VH, as listed by the source, chain 1 of 2): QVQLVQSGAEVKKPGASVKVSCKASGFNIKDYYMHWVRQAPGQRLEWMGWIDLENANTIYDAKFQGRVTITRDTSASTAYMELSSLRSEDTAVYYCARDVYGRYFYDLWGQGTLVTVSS
T5 sequence (VL, as listed by the source, chain 2 of 2): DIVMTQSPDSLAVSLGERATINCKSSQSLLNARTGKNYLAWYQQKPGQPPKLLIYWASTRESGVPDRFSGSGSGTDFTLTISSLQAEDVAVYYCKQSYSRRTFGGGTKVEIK
T3 sequence (VH, as listed by the source limits assumed, chain 1 of 2): as the sequence (VH, as listed by the source, chain 1 of 2) above, with V100Q, L108V counted along it
T3 sequence (VL, as listed by the source limits assumed, chain 2 of 2): as the sequence (VL, as listed by the source, chain 2 of 2) above
T13 sequence (VH, as listed by the source limits assumed, chain 1 of 2): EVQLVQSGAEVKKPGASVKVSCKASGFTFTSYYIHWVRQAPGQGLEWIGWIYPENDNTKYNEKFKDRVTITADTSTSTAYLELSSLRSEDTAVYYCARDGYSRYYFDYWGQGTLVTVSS
T13 sequence (VL, as listed by the source limits assumed, chain 2 of 2): as the sequence (VL, as listed by the source, chain 2 of 2) above, with A32S, G35R, P49S, A57T, E61K, Y98F, S99I, R100L, G105Q counted along it
T1 sequence (VH, as listed by the source limits assumed, chain 1 of 2): as the sequence (VH, as listed by the source, chain 1 of 2) above, with N55E, A56G, V100R, R103A, L108V counted along it
T1 sequence (VL, as listed by the source limits assumed, chain 2 of 2): as the sequence (VL, as listed by the source, chain 2 of 2) above, with R100L counted along it
T10 sequence (VH, as listed by the source limits assumed, chain 1 of 2): as the sequence (VH, as listed by the source, chain 1 of 2) above, with N55E, A56G, A97G, V100A, R103L, L108V counted along it
T10 sequence (VL, as listed by the source limits assumed, chain 2 of 2): as the sequence (VL, as listed by the source, chain 2 of 2) above, with R100L counted along it
T11 sequence (VH, as listed by the source limits assumed, chain 1 of 2): as the sequence (VH, as listed by the source, chain 1 of 2) above, with A56G, A62P, V100G, L108V counted along it
T11 sequence (VL, as listed by the source limits assumed, chain 2 of 2): as the sequence (VL, as listed by the source, chain 2 of 2) above, with A32S counted along it
T6 sequence (VH, as listed by the source limits assumed, chain 1 of 2): as the sequence (VH, as listed by the source, chain 1 of 2) above, with A56G, A62P, V100G, L108V counted along it
T6 sequence (VL, as listed by the source limits assumed, chain 2 of 2): as the sequence (VL, as listed by the source, chain 2 of 2) above, with A32S counted along it
T9 sequence (VH, as listed by the source limits assumed, chain 1 of 2): as the sequence (VH, as listed by the source, chain 1 of 2) above, with N55E, A56G, V100A, L108V counted along it
T9 sequence (VL, as listed by the source limits assumed, chain 2 of 2): as the sequence (VL, as listed by the source, chain 2 of 2) above, with R100L counted along it
T4 sequence (VH, as listed by the source limits assumed, chain 1 of 2): as the sequence (VH, as listed by the source, chain 1 of 2) above, with N55E, A56G, V100A, L108V counted along it
T4 sequence (VL, as listed by the source limits assumed, chain 2 of 2): as the sequence (VL, as listed by the source, chain 2 of 2) above, with R100L counted along it
T14 sequence (VH, as listed by the source limits assumed, chain 1 of 2): as the sequence (VH, as listed by the source, chain 1 of 2) above, with V100A, L108V counted along it
T14 sequence (VL, as listed by the source limits assumed, chain 2 of 2): as the sequence (VL, as listed by the source, chain 2 of 2) above
T7 sequence (VH, as listed by the source limits assumed, chain 1 of 2): as the sequence (VH, as listed by the source, chain 1 of 2) above, with V100A, L108V counted along it
T7 sequence (VL, as listed by the source limits assumed, chain 2 of 2): as the sequence (VL, as listed by the source, chain 2 of 2) above
T8 sequence (VH, as listed by the source limits assumed, chain 1 of 2): as the sequence (VH, as listed by the source, chain 1 of 2) above, with V100Q, L108V counted along it
T8 sequence (VL, as listed by the source limits assumed, chain 2 of 2): as the sequence (VL, as listed by the source, chain 2 of 2) above
T15 sequence (VH, as listed by the source limits assumed, chain 1 of 2): as the sequence (VH, as listed by the source, chain 1 of 2) above, with A97G, V100A, L108V counted along it
T15 sequence (VL, as listed by the source limits assumed, chain 2 of 2): as the sequence (VL, as listed by the source, chain 2 of 2) above, with R100L counted along it
T2 sequence (VH, as listed by the source limits assumed, chain 1 of 2): as the sequence (VH, as listed by the source, chain 1 of 2) above, with N55E, A56G, V100Q, L108V counted along it
T2 sequence (VL, as listed by the source limits assumed, chain 2 of 2): as the sequence (VL, as listed by the source, chain 2 of 2) above, with R100I counted along it
T12 sequence (VH, as listed by the source limits assumed, chain 1 of 2): as the sequence (VH, as listed by the source, chain 1 of 2) above, with V100N, R103G, L108V counted along it
T12 sequence (VL, as listed by the source limits assumed, chain 2 of 2): as the sequence (VL, as listed by the source, chain 2 of 2) above, with N31E, A32S, R100L counted along it

B1: ADI-34134 IgG (antibody, V domains shown)
VH: QVQLVQSGAEVKKPGSSVKVSCKASGGTFSSYAISWVRQAPGQGLEWMGGIIPIFGTANYAQKFQGRVTITADESTSTAYMELSSLRSEDTAVYYCARGAPNYYGSGGYDDGWFDPWGQGTLVTVSS
VL: EIVLTQSPGTLSLSPGERATLSCRASQSVSSDYLAWYQQKPGQAPRLLIYGASSRATGIPDRFSGSGSGTDFTLTISRLEPEDFAVYYCQQFGRVPTFGGGTKVEIK
On to B1, for which the Kd (as a rule, the equilibrium constant for the complex coming apart) was found to be 0.45 nM in the assay with ADI-26927 IgG; 1.13 nM in the assay with ADI-26941 IgG; 0.77 nM with ADI-26913 IgG [1]; 0.57 nM in the assay with ADI-26921 IgG; 1.04 nM with ADI-26916 IgG [2]; 0.47 nM with ADI-22523 anti-CD3 bsIgG. For the same molecule, the Kd with ADI-26906 anti-CD3 bsIgG stood at 0.75 nM; in the assay with ADI-26913 anti-CD3 bsIgG, 0.98 nM; with ADI-26921 anti-CD3 bsIgG it was 0.94 nM; with ADI-26928 anti-CD3 bsIgG it was 1.39 nM.

B2: ADI-34145 IgG (antibody, V domains shown)
VH: EVQLLESGGGLVQPGGSLRLSCAASGFTFSSYAMSWVRQAPGKGLEWVSTISGSGGSTYYADSVKGRFTISRDNSKNTLYLQMNSLRAEDTAVYYCARLGGRRGSGSSYYYYYGMDVWGQGTTVTVSS
VL: not shown
notes: anti-ID IgG
As to B2, the Kd was found to be 2.6 nM in the assay with ADI-22523 IgG; 1.82 nM with ADI-26954 IgG; 8.39 nM in the assay with ADI-26906 IgG; 1.03 nM in the assay with ADI-26913 IgG [3]; 3.5 nM in the assay with ADI-26920 IgG; 7.75 nM with ADI-26916 IgG [4]. The binding result with CTL-19613 IgG and with CTL-19672 IgG was “no binding” throughout.
